Assay [1] addresses T1, Orai1-COOH-DsRed (carboxyl terminus of Orai1 fused to the red fluorescent protein) (human).
T1 construct: also called Orai1-dsRED-COOH peptide; source: spotted on the microarray slide; not shown: DsRed, C-terminal, kept
T1 chain: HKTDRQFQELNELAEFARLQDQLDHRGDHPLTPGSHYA
Put plainly: peptide or protein array; TIRFM microarray; Orai1-COOH-DsRed printed on poly-D-lysine coated glass as bait, ANK domains fused to GFP in solution at 1 uM, 3 min incubation, wash with saline, GFP fluorescence read. The conditions noted are these: both partners purified.

For assay [2], the target named is T2, ANK1 domain printed on the microarray slide as bait (rat).
T2 construct: ankyrin domain 1 of rat TRPV1, 110-152; The methods say 'the ANK1 domain (see above)', which points to the ANK1-GFP fusion; Kept apart from m6 for that reason; source: purified peptide, printed on glass microarray slides coated with poly-D-lysine
T2 chain: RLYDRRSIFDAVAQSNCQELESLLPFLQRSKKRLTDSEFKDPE
Put plainly: peptide or protein array; TIRFM microarray; ANK1 domain printed on poly-D-lysine coated glass as bait, Orai1 terminus fused to GFP in solution, GFP fluorescence read. The conditions noted are these: both partners purified.

No end group written: not given here.

B1: ANK3-GFP (third ankyrin domain of rat TRPV1 fused to GFP) (domain or fragment)
chain: KGQTALHIAIERRNMTLVTLLVENGADVQAAANGDFFKKTKGRPGFY
notes: ankyrin domain 3 of rat TRPV1, 200-246; source: HEK293, transfected, in lysate (co-IP); HEK293 in suspension, sonicated, immunoprecipitated with anti-GFP antibody (microarray); not shown: enhanced GFP, C-terminal, kept
Take B1: in assay [1], the binding result is reported as “binds”.

B2: Orai1-COOH-GFP (carboxyl terminus of Orai1 fused to GFP) (domain or fragment, human)
chain: HKTDRQFQELNELAEFARLQDQLDHRGDHPLTPGSHYA
modifications: also: fused to GFP
notes: source: HEK293 in suspension, sonicated, immunoprecipitated with anti-GFP antibody (procedure as for the ANK-GFP fusions); not shown: GFP, C-terminal, kept
Take B2: in assay [2], the binding result is recorded as “binds”.

B3: ANK1-GFP (first ankyrin domain of rat TRPV1 fused to GFP) (domain or fragment)
chain: RLYDRRSIFDAVAQSNCQELESLLPFLQRSKKRLTDSEFKDPE
notes: ankyrin domain 1 of rat TRPV1, 110-152; source: HEK293, transfected, in lysate (co-IP); HEK293 in suspension, sonicated, immunoprecipitated with anti-GFP antibody (microarray); not shown: enhanced GFP, C-terminal, kept
Regarding B3, the binding result in assay [1] was “binds”.

B4: ANK2-GFP (second ankyrin domain of rat TRPV1 fused to GFP) (domain or fragment)
chain: TGKTCLLKAMLNLHNGQNDTIALLLDVARKTDSLKQFVNASYTDSYY
notes: ankyrin domain 2 of rat TRPV1, 153-199; source: HEK293, transfected, in lysate (co-IP); HEK293 in suspension, sonicated, immunoprecipitated with anti-GFP antibody (microarray); not shown: enhanced GFP, C-terminal, kept
Turning to B4, in assay [1], the binding result is on record as “binds”.

B5: ANK4-GFP (fourth ankyrin domain of rat TRPV1 fused to GFP) (domain or fragment)
chain: FGELPLSLAACTNQLAIVKFLLQNSWQPADISARDS
notes: ankyrin domain 4 of rat TRPV1, 247-282; source: HEK293 in suspension, sonicated, immunoprecipitated with anti-GFP antibody (microarray); not shown: enhanced GFP, C-terminal, kept
Regarding B5, the binding result in assay [1] is “binds”.

The values are drawn from publication PMC6399350, “Heterologous calcium-dependent inactivation of Orai1 by neighboring TRPV1 channels modulates cell migration and wound healing” (Communications Biology, 2019).
